Substitutions are numbered along the chain they refer to. Several values for one entry are separate records, joined by “and”; a condition that tells them apart may be missing. Equal values may be shown once.
T1: human interleukin 13 receptor subunit alpha 2 (IL-13RA2) (human, UniProt Q14627 27-380)
T1 construct: whole, on cells; also called IL-13Rα2; CD213A2
T1 sequence (looked up): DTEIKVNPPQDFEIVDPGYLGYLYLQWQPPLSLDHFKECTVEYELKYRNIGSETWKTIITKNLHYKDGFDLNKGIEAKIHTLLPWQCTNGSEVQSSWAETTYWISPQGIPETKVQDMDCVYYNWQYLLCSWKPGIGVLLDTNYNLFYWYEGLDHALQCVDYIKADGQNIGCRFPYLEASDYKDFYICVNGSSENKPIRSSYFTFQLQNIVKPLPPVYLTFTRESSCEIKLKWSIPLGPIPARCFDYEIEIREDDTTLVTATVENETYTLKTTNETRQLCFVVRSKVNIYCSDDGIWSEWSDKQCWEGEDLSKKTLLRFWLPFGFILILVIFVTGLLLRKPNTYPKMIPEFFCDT

B1: xi24G6D5 hIgG1 (antibody, V domains shown)
VH: QVQLQQSGPELVKPGTSVKMSCKASGYTFTSNYIHWVKQRPGQGLEWIGWIYPGDGSIKYNEKFKGKTTLTADKSSSTVYMLLSSLTSEDSAIYFCAVLRRLDYWGQGTTLTVSS
VL: DIVLTQSPATLSVTPGDSVSLSCRASQSISNNLHWYQQKSHESPRLLIKYASQSISGIPSRFSGSGSGTDFTLSINSVETEDFGMYFCQQSNSWPLTFGAGTKLELK
B2: xi34A5G9 hIgG1 (antibody, V domains shown)
VH: EVHLQQSGPELVKPGASVKISCKTSGYTFTEYTMHWVKQSHGKSLEWIGRINPNNGIAEYKQTFKDKATLAVDKSSSTAYMEFRSLTSEDSAVYYCARGEGYGYWFAYWGQGTLVTVSA
VL: DIQMTQSPASLSASVGETVTITCRTSDNIYSYLAWYQQRQGKSPQLLVSNARTLAEGVPSRFSGSGSGTQFSLKINSLQPEDFGIYYCQHHSGTPFTFGSGTNLEIE
B3: xi51G2B3 hIgG1 (antibody, V domains shown)
VH: QVQLQQSGPELVKPGASVKISCKASGYAFSDSWMNWVKQRPGQGLEWIGRIYPGDGDTNYNGKFKGKATLTADKSSNTAYMQLSSLTSVDSAVYFCARSWNGSPWFPYWGQGTLVTVSA
VL: DVLMTQTPLSLPVSLGDQASISCRSSQTIAHRNGNTYLEWYLQKPGQSPKLLLYKVSNRFSGVPDRFSGSGSGTDFTLKISRVEAEDLGVYYCFQGSHVTWTFGGGTKLEIK
B4: xi54A4F7 hIgG1 (antibody, V domains shown)
VH: EVKLVESGGGLVKPGGSLKLSCAASGFTFSSYGMSWVRQTPEKRLEWVATISGGGSYTYYPDSVKGRFTISRDNAKNNLYLQMSSLRSEDTALYYCARRDLRSAMDHWGQGTSVTVSS
VL: DIVMTQSQKFMSTSVGDRVSVTCRASQNVDINVAWYQQKPGQSPKSLIYSASYRYSGVPDRFTGSGSGTDFTLTISNVQSEDLAEYFCQQYNSYPLTFGGGTKLEIR
B5: xi73A11E2 hIgG1 (antibody, V domains shown)
VH: B4 VH with K76R, S84N, H107Y
VL: B4 VL with R24K, S46A, Y86F, R107K
B6: xi74B5E4 hIgG1 (antibody, V domains shown)
VH: B4 VH with K19R, S31T, H107Y
VL: B4 VL with R24K, S46A, S93T, R107K
B7: xi57F8H3F1 hIgG1 (antibody, V domains shown)
VH: QVQLQQPGAELVRPGASVKLSCKASGYTFTNYWMNWIKQRPEQGLEWIGRIDPYETETHYNQKFRDRAILTVDKSSSTAFMQLSGLTSEDSAVYYCARGYGHYYGVDYWGQGTSVTVSS
VL: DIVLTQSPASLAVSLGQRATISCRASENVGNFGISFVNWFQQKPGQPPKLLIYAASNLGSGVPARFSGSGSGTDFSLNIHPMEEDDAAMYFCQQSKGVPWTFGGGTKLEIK
B8: xi61H8C1 hIgG1 (antibody, V domains shown)
VH: QVQLQQSGAELARPGASVMLSCKASGYTFTSYWTQWIKQRPGQGLEGIGAIYPGDDDTSYNQKFKGKATLTADKSSSTAYMQLNSLTSEDSAVYYCARGATLLRPFPYWGQGTLVTVSA
VL: DIVMTQSHKFMSTSVGDRVSITCKASQDVSTAVAWYQQKPGQSPKLLIYSASYRYTGVPDRFTGSGSGTDFTFTISSVQAEDLAVYSCQQHYSIPPTFGGGTKLEIK
B9: xi62A8D8 hIgG1 (antibody, V domains shown)
VH: B4 VH with H107Y
VL: B4 VL with R24K, S46A, Y86F, S93N, R107K
B10: xi62F6A8 hIgG1 (antibody, V domains shown)
VH: B8 VH with L4I, S31D, T34M, D56G, S59A, K65R, T87A, Y95F, Y108F
VL: B8 VL with T56A
B11: xi72B4H4 hIgG1 (antibody, V domains shown)
VH: QVQLQQPGAERVRPGASVKLSCKASGYTFTNYWMNWVKQRPEQGLEWIGRIDPYAGETHYNQKFKDKAILTVDKSSSTAYMQLRSLTSEDSAVYYCARGYGDSYGMDHWGQGTSVTVSS
VL: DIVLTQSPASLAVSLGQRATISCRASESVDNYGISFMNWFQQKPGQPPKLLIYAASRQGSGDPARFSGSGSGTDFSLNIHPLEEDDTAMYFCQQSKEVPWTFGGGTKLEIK

Biological target: T1, human interleukin 13 receptor subunit …
Assay: FACS on A375 cells
Procedure: (§1) A375 cells that endogenously expressed IL-13RA2, were harvested from flasks. 100 μl of 1×10⁶ cells/ml of cells were incubated with primary chimeric antibodies in 3-fold serial dilutions starting from 300 nM to 0.002 nM for 30 minutes on ice. After being washed with 200 μl of FACS buffer twice, cells were incubated with secondary antibody for 30 minutes on ice. Cells were washed with 200 μl of FACS buffer twice and analyzed by FACS.
As shown in FIG. 3 and Table 4, the chimeric antibodies bound to human IL-13RA2 at different EC50.

Binder	EC50	Top (MFI)
B1	0.88 nM	15200 MFI
B2	0.26 nM	16700 MFI
B3	0.64 nM	15500 MFI
B4	0.63 nM	18000 MFI
B5	0.65 nM	18000 MFI
B6	0.7 nM	18100 MFI
B7	0.99 nM	17600 MFI
B8	0.47 nM	15600 MFI
B9	0.82 nM	17300 MFI
B10	0.48 nM	15800 MFI
B11	0.85 nM	16900 MFI

Biological target: T1, human interleukin 13 receptor subunit …
Assay: cell-based or functional assay

Binder	internalization EC50 (pHAb dye), A375 cells	internalization EC50 (pHAb dye), CHO-K1/H_IL-13RA2 cells	internalization EC50 (pHAb dye), HEK-293/H IL-13RA2 cells	internalization Top (MFI), A375 cells	internalization Top (MFI), CHO-K1/H_IL-13RA2 cells	internalization Top (MFI), HEK-293/H IL-13RA2 cells
B1	0.61 nM	0.86 nM	2.76 nM	4110 MFI	12700 MFI	23700 MFI
B2	3.63 nM	1.38 nM	1.78 nM	8610 MFI	13900 MFI	25700 MFI
B3	1.32 nM	1.84 nM	3.84 nM	6380 MFI	17100 MFI	28900 MFI
B4	0.66 nM	1.42 nM	1.65 nM	5500 MFI	18000 MFI	22800 MFI
B5	0.77 nM	1.52 nM	1.98 nM	4310 MFI	17900 MFI	23500 MFI
B6	~0.437 nM	0.91 nM	1.31 nM	5170 MFI	17700 MFI	21600 MFI
B7	0.74 nM	2.37 nM	2.42 nM	2720 MFI	19200 MFI	26000 MFI
B8	~0.441 nM	1.02 nM	1.49 nM	3820 MFI	16900 MFI	24700 MFI
B9	1 nM	1.58 nM	1.88 nM	5550 MFI	17200 MFI	23300 MFI
B10	~0.447 nM	1.17 nM	1.73 nM	4530 MFI	15900 MFI	22300 MFI
B11	1.06 nM	2.92 nM	2.18 nM	5260 MFI	18700 MFI	19500 MFI

Biological target: T1, human interleukin 13 receptor subunit …
Assay: FACS on A375 cells
Remark: another data set of the same source
Procedure: as §1, with “humanized” for “chimeric”, “4-fold” for “3-fold”, “200” for “300”, “0.003” for “0.002”

Binder	EC50
B5	0.26 nM and 0.359 nM and 0.45 nM
B7	0.33 nM and 0.41 nM
B8	0.16 nM
B11	0.36 nM and 0.581 nM
